From patent publication US11110182B2, “Multifunctional RNA nanoparticles and methods for treating cancer and therapeutic resistant cancer” (University of Cincinnati, priority 2016, dated 2021)

B1: pRNA-HER2apt-siMED1: 3-WJ pRNA nanoparticle bearing a HER2-targeting RNA aptamer and two different MED1 siRNAs; strands p1 SEQ ID NO: 3, p2 SEQ ID NO: 4 (nucleic acid)
chain 1: GGACAGUGAAAGUGAGUCAAAGGAUCAAUCAUGGCCAAAGAUGUUACUUUGAGAGCCUU
chain 2: GGCUCUCAAAGUAACAUCUAAGGCCAUGUGUAUGUGGGGGGAGGACGAUGCGGUCUGCUGUGCUUGAUAUGCCCCAGACGACUCGCCCCCCACAUACUUUGUUGAUCCAAUGACUCACUUUCACUGUCCUU
modifications: 2'-F modification; third strand may lack entry; pRNA-HER2apt-siMED1, p1; pRNA-HER2apt-siMED1, p2
B2: pRNA-HER2apt^mut-siMED1: control pRNA nanoparticle with mutant HER2 aptamer; strands p1 SEQ ID NO: 5, p2 SEQ ID NO: 6 (nucleic acid)
chain 1: B1 chain 1
chain 2: GGCUCUCAAAGUAACAUCUAAGGCCAUGUGUAUGUGGGAUGAGGAGUAUGAAGAUACCUGUACUUGAUAUGCCCCAGACGACAUUCCCCCCACAUACUUUGUUGAUCCAAUGACUCACUUUCACUGUCCUU
modifications: pRNA-HER2apt(mut)-siMED1, p1; pRNA-HER2apt(mut)-siMED1, p2

Experiments:
[1] = tested on: MED1; test: MED1 protein level by western blotting in BT474 cells; format: cell-based, human; conditions: 48 h; for MED1 protein level after transfection with lipofectamine 2000: BT474, transfected
Experimental: (§1) FIG. 3A) BT474 cells were incubated with 10 μg/mL control and pRNA-HER2apt-siMED1 nanoparticles for 48 h, and MED1 mRNA level was determined by real-time PCR. FIG. 3B) BT474 cells were incubated directly with (as indicated by -) or transfected with indicated pRNAs using lipofectamine 2000. At 48 h post treatment, MED1 protein levels were determined by western blotting. FIG. 3C) BT474 cells were treated with 10 μg/mL pRNA nanoparticles for 48 h and assayed for cell viability by MTT assay. FIG. 3D) Cells were treated as above and seeded for migration, and FIG. 3E) invasion transwell assays. Scale bar: 50 μm. FIG. 3F) After pRNA treatment for 48 h, the mRNA levels of ERα target genes TFF-1, FIG. 3G) c-Myc, and FIG. 3H) cyclin D1 in BT474 cells were determined by real-time PCR.
FIG. 7A) Six HER2-targeting RNA aptamers were selected from previous literatures, and their secondary structures were predicted using Srna-fold software. FIG. 7B) Six p2 strands containing the six different HER2 RNA aptamers were synthesized and annealed with the same p1 strand to generate six different pRNA-HER2apt-MED1 siRNA nanoparticles, respectively, followed by examination using 8% native PAGE gel electrophoresis. FIG. 7C) BT474 cells were treated with above pRNA nanoparticles for 48 h, and then MED1 protein level was determined by western blotting. […] FIG. 7D) 1 μg pRNA nanoparticles were incubated with recombinant Dicer enzyme (Genlantis) at 37° C. for 12 h, the product was separated by 8% native PAGE gel.
FIG. 9A) BT474 cells were treated with different concentrations of pRNA nanoparticles as indicated for 48 h. After that, MED1 protein level was determined by western blots, and FIG. 9B) the cell viability was determined by MTT assay.
Cell culture. Human breast cancer luciferase-overexpressing BT474 and MDA-MB-231 cells were maintained in DMEM medium (Hyclone, Thermo Scientific) supplemented with 10% fetal bovine serum (FBS, Sigma) and 1% penicillin/streptomycin (Corning) at 37° C. in a humidified atmosphere with 5% CO2.^53 • Generation of pRNA nanoparticles. The two strands of pRNA were synthesized with the DNA templates, which were amplified with overlapping primers (Sigma) by PCR methods, using a T7 promoter-controlled in vitro RNA transcription system as previously described^33 (Table 1). All the CTP and UTP used for synthesis of the pRNA nanoparticles were 2′-fluoro modified, except the control unmodified pRNA nanoparticles used in the stability assays. Following an overnight transcription at 37° C., RNA strands were purified using RNA clean and concentrator kits (ZYMO research) and examined by 8 M urea denatured 8% PAGE gel. pRNA nanoparticles were assembled by mixing the equal molar amounts of p1 and p2 strands and gradually annealing from 90° C. to 20° C. in 1×RNA annealing buffer containing 50 mM Tris-HCl (pH 7.5), 50 mM NaCl and 1 mM EDTA on a PCR machine. […] The hydrodynamic diameter and Tm value of pRNA nanoparticles were determined using dynamic light scattering and TGGE assay, respectively, as previously described.^54 The AFM imaging of the pRNA nanoparticles was performed at the University of Nebraska Medical Center imaging facility as previously reported.^55 Briefly, the pRNA nanoparticles (5 μL) were deposited on APS modified mica ^56 for a total of 2 min of incubation time. […]

[2] = tested on: BT474 cells; test: Transwell migration and invasion assay, BT474 cells; format: cell-based, human; conditions: for invasion ability: Matrigel-coated transwell
Experimental: as §1
FIG. 4A) BT474 cells were treated with pRNA nanoparticles in combination with vehicle or 1 μM 4-hydroxy-tamoxifen (4-OHT) as indicated for 48 h, and assayed for cell viability by MTT assay. FIG. 4B) Cells were treated as above and the migration and FIG. 4C) invasion capabilities were examined. FIG. 4D) Cells were treated as above and assayed for in vitro mammosphere formation. FIG. 4E) The number of mammospheres was counted, and FIG. 4F) the mammosphere size was calculated. Scale bar: 10 μm.
FIG. 11. […] BT474 cells were treated with pRNA nanoparticles alone or together with 1 μM 4-hydroxy-tamoxifen (4-OHT) for 48 h. Cell migration and invasion were then examined using transwell assay. Photos were recorded using an Olympus SZX12 microscope. Scale bar: 100 μm.
Migration and metastasis assay. The 8-μm-pore-size polycarbonate membrane, which separates the two chambers of a 6.5-mm Transwell (Costar), was coated with or without 1:8 DMEM-diluted Matrigel (Corning). Transwell assay was performed as previously described.^57 Briefly, BT474 cells were treated with pRNAs alone or together with 4-hydroxy-tamoxifen (4-OHT) for 48 h and starved with serum-free DMEM containing 0.2% BSA overnight. On the next day, cells were collected and 2×10^5 cells were seeded to the upper chamber of Transwell. The lower chamber was filled with 600 μL DMEM medium containing 10% FBS. After incubation at 37° C. for 24 h, cells on the membranes were fixed and stained with 0.1% crystal violet in 20% ethanol solution. Cells at top side of membranes were removed completely, and cells at the bottom side were examined with an Olympus SZX12 microscope and counted. • Mammosphere culture and breast cancer stem cell analyses. BT474 cells were treated with pRNAs for 48 h. Then, cells were suspended in DMEM/F12 medium supplemented with 1×B27 (Thermo Fisher), 20 ng/mL bFGF and 20 ng/mL EGF (R&D), and added into 24-well ultralow attachment plates. After treatment with or without 1 μM 4-OHT for 7 days, mammosphere formation was recorded using an Axiovert S100 TV inverted microscope (Zeiss). Xenograft tumor tissues were cut into small pieces and digested with trypsin and collagenase at 37° C. for 1 h, and tumor cells were collected and rinsed with pre-cold PBS. All cells were stained with FITC-conjugated anti-CD44 antibody and PE-conjugated anti-CD24 antibody (BD Pharmingen) in the dark on ice for 30 min. After resuspension with 0.5 mL PBS buffer, CD44^+/CD24^−/low cell population was analyzed by flow cytometry. • Orthotopic xenograft breast tumor mouse model, in vivo imaging and anti-tumor therapy. […]

[3] = BT474, in combination with 1 μM 4-hydroxy-tamoxifen, 48 h

| Molecule | dose dependence of decrease of MED1 protein level ([1]; BT474, different concentrations) | MED1 protein level ([1]; BT474, direct incubation) | MED1 protein level after transfection with lipofectamine 2000 [1] | invasion ability ([2]; BT474, 48 h treatment) | migration ability ([2]; BT474, 48 h treatment, transwell without Matrigel) | effect on tamoxifen inhibition of invasion [2, 3] | effect on tamoxifen inhibition of migration [2, 3] |
| --- | --- | --- | --- | --- | --- | --- | --- |
| B1 | dose-dependent manner | greatly reduced | MED1 silencing | specifically suppressed | specifically suppressed | significantly enhanced the inhibitory effects of tamoxifen | significantly enhanced the inhibitory effects of tamoxifen |
| B2 |  |  | MED1 silencing | not |  |  |  |
